A short description of series [1]: Travelling wave ion mobility CCS calibration: drift times and TWCCSN2 of calibrant protein ions. The class given is physicochemical. The note with it: drift gas nitrogen, repeat determinations printed as separate rows; for dt exp.: in ms; for TWCCSN2: in Å2. The source says: Supplement 41598_2025_28101_MOESM1_ESM.docx, table 25: Table S18: Drift times, experimentally determined CCS, and literature references of calibrant proteins. | column: CCS determinations ^a); CCS from literature ^a)

The conditions of series [2]: drift gas nitrogen, in Å2, cited from earlier work. The source says:
Supplement 41598_2025_28101_MOESM1_ESM.docx, table 25: Table S18: Drift times, experimentally determined CCS, and literature references of calibrant proteins. | column: CCS from literature ^a)

[3] abbreviates: calibrant ion z = 5, ion at m/z 2473.12.
The mark [4] stands for this setting: calibrant ion z = 5, ion at m/z 2473.14.

“And” between values parts separate entries of the source, which are not always exact repeats. Identical values can stand only once. Like-named read-outs stand apart in the source and are kept apart here.

Turning to cytochrome c, the dt exp. in series [1] (setting [3]) is 12.03; in series [1] (setting [4]), 11.89; in series [1] (calibrant ion z = 8), 10.23 and 10.37. The TWCCSN2 in series [1] (setting [3]) is 1204; in series [1] (setting [4]), 1199; in series [1] (calibrant ion z = 8), 1827 and 1835. For the same substance, the “CCS from literature, CCS exp.” value is 1146 in series [2] (calibrant ion z = 5); 1477 and 1490 in series [2] (calibrant ion z = 6, two literature values); 1590 in series [2] (calibrant ion z = 7).

The record behind these values is publication PMC12644675, “The mass spectrometric intact transition epitope mapping method supports protein engineering of foldon trimer variants” (Scientific Reports, 2025).
